Values of other authors in PMC3281059.

Biological target: actin monomer (UniProt P68133)

Kd: 600 nM
Substance: WCA domain WCA (from UniProt O00401)
